Values of other authors in publication PMC4845744.

Target: MutLα (Homo sapiens) (UniProt P40692)
Sequence (P40692 2-756, chain 1 of 2): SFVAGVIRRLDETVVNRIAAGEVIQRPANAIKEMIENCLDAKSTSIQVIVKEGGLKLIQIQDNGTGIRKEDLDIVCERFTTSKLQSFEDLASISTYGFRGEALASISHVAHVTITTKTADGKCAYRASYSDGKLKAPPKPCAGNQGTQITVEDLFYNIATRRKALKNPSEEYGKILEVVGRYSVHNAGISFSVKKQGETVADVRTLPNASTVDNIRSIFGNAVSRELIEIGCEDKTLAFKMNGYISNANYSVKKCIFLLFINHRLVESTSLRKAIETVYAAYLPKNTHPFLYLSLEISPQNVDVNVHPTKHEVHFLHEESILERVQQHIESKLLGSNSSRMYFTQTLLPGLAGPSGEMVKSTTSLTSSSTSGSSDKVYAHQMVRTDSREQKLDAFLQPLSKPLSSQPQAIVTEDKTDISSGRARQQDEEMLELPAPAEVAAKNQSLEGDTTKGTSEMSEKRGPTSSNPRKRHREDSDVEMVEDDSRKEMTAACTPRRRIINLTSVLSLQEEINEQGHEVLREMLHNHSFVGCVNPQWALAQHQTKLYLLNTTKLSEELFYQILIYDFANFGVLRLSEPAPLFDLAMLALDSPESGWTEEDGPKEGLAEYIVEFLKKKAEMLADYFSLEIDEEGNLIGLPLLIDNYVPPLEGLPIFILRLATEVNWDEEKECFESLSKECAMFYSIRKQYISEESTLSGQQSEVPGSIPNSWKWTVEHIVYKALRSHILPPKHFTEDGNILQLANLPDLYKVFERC
Sequence (P54278 whole entry, chain 2 of 2, further chain): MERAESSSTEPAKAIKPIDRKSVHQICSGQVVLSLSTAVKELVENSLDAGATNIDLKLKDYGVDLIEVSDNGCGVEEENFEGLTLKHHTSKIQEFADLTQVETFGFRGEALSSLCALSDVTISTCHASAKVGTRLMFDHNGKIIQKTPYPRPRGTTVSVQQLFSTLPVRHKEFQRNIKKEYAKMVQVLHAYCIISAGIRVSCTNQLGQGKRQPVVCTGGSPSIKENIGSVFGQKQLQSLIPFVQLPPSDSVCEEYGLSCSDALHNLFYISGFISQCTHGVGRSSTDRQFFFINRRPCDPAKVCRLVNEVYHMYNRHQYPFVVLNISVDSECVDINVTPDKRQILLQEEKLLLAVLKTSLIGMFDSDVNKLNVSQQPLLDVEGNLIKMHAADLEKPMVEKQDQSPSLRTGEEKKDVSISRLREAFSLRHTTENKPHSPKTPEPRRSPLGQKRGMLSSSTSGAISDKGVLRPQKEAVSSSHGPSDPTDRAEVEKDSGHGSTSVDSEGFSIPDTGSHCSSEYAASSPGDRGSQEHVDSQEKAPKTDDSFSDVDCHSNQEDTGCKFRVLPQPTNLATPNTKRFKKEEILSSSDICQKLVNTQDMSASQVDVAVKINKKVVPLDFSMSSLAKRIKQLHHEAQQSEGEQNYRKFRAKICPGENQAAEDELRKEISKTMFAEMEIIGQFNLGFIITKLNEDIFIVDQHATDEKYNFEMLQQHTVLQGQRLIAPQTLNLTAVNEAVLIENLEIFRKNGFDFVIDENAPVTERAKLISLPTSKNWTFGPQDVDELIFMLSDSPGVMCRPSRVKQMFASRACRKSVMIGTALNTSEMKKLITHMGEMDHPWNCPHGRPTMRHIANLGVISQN

- Kd: 0.25 µM
Substance: MutSβ (from UniProt P43246)
